In patent US20200330548A1 (SYNERGY PHARMACEUTICALS, published 2020):
Bridge positions count the residues as written; N and C are the ends. Square brackets hold non-standard residues; d marks the D form. Ends that are not written are not given here.

What was measured:
[1] = biological target: guanylate cyclase-C (GC-C) on T84 cells (human, UniProt P25092 24-1073); assay: cell-based or functional assay
[2] = biological target: T1, guanylate cyclase-C (GC-C) on rat jejunum tissue (rat, UniProt P23897 23-1072); assay: cell-based or functional assay
T1 sequence (looked up): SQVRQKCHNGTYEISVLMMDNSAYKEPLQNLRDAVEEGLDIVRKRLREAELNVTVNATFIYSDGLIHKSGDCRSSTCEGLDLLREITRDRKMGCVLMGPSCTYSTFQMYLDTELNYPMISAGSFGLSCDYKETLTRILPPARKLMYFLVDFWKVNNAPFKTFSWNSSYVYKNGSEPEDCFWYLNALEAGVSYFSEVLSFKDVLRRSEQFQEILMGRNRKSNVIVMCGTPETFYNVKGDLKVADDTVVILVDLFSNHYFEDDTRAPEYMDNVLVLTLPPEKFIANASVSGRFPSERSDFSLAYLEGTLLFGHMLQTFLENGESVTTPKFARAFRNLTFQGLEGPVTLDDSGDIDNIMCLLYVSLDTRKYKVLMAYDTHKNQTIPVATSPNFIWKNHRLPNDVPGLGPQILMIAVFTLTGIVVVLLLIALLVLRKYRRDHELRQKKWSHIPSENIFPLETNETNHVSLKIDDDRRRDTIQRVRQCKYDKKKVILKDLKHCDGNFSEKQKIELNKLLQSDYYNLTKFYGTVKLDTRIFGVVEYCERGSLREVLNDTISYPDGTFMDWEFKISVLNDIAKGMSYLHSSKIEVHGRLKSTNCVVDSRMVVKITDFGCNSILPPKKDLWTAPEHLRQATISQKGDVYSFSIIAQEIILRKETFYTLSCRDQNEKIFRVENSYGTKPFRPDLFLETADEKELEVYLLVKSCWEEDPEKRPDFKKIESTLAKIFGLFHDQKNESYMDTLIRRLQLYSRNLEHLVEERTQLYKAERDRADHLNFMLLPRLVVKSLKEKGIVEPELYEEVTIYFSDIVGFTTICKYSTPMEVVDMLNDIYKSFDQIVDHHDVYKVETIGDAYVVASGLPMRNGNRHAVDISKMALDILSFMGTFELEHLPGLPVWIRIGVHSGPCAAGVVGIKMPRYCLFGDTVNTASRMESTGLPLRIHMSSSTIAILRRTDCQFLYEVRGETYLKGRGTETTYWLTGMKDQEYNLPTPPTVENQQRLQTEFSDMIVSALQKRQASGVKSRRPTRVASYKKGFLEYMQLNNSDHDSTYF

guanylate cyclase-C (GC-C) on T84 cells, sequence (P25092 24-1073): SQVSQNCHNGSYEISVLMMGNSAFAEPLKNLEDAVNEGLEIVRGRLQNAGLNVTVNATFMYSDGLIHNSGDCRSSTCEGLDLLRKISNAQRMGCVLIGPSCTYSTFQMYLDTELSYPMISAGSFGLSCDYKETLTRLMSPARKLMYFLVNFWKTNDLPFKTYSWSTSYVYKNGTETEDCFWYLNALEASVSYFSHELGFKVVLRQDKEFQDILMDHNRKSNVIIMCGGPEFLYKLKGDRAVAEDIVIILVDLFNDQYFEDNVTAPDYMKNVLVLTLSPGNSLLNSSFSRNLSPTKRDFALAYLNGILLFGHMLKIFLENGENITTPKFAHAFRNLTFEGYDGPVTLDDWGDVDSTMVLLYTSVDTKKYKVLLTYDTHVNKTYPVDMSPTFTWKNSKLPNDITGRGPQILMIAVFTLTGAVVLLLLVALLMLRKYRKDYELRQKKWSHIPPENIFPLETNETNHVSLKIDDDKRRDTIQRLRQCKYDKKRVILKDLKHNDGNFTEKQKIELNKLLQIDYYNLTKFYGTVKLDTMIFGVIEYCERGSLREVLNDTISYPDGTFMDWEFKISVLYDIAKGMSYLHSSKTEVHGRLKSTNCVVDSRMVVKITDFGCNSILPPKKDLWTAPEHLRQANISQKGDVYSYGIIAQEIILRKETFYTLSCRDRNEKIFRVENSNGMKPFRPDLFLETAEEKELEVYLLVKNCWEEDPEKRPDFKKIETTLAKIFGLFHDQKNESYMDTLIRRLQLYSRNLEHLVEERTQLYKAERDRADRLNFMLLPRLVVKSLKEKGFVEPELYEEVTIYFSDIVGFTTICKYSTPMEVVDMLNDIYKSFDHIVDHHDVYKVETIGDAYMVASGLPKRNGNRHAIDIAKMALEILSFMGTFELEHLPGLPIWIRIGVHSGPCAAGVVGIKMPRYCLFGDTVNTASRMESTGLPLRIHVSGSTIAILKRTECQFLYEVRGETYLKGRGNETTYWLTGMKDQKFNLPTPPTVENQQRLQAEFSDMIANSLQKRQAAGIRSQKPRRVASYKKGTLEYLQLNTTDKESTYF

B1: SP-333 (peptide)
peptide: [dN]DECELCVNVACTGC[dL]
modifications: disulfide 4-12, 7-15
short-circuit current (Isc, chloride current) across T84 cells monolayer, Ussing chamber; EC50 [1]: 169 nM | short-circuit current (Isc, chloride current) across rat jejunum tissue, Ussing chamber; EC50 [2]: 299 nM
